Results reported in patent US20180194851A1 (Pfizer, published 2018).
Substitutions are numbered along the chain they refer to. Each block holds one binder with its values, some of them ahead of it.

Tests used:
[1] = target: T1, Recombinant human 4-1BB/Fc Chimera (R&D Systems #838-4B) (human, UniProt Q07011 24-186); assay: ELISA on directly coated human 4-1BB/Fc
T1 construct: Bought protein; also called Human 4-1BB IgG1Fc chimera; not shown: Factor Xa-cleavable junction, human IgG1 Fc and 6xHistidine tag of the bought chimera

human 4-1BB on cells [2] = target: T2, human 4-1BB on cells (human, UniProt Q07011 18-255); assay: FACS on HEK293 cells expressing human 4-1BB
T2 construct: Expressed on stably transfected HEK293/HEK293T cells, transduced 300-19 cells or PHA stimulated human PBMC; also called h41BB; hu4-1BB

[3] = target: T3, human 4-1BB (recombinant antigen, construct not stated) (human, UniProt Q07011 24-186); assay: SPR (Biacore 3000), Fab analyte on amine-coupled human 4-1BB
T3 construct: It may be the 4-1BB/Fc chimera; also called CD137/HUMAN 4-1BB; unlabeled human 4-1BB

[4] = target: T3, human 4-1BB (recombinant antigen, …); assay: solution equilibrium titration (SET), MSD electrochemiluminescence
human 4-1BB on cells [5] = target: T2, human 4-1BB on cells; assay: FACS on transfected cells
Hu41BB N&E.5 [6] = target: T4, Hu41BB N&E.5 (human, UniProt Q07011 18-255); assay: FACS dose response on 300-19 cell pools
T4 construct: Human-to-dog mutant of the human 4-1BB extracellular domain, expressed on transduced 300-19 cells; also called 4-1BB Mutant N&E.5
T4 chain: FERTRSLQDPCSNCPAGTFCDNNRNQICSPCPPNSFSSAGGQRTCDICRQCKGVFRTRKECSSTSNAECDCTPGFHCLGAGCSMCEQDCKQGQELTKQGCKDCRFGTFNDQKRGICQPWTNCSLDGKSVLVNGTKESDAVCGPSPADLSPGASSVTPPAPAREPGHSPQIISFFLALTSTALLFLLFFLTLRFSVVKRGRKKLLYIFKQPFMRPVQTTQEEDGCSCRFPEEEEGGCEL

CD40 on 300.19 cells = target: T5, CD40 on 300.19 cells (UniProt P25942 21-277, limits assumed); assay: FACS on 300.19 cells expressing CD40
T5 construct: whole, on cells; also called TNFRSF5; 300.19 CD40
T5 sequence (P25942 21-277 limits assumed): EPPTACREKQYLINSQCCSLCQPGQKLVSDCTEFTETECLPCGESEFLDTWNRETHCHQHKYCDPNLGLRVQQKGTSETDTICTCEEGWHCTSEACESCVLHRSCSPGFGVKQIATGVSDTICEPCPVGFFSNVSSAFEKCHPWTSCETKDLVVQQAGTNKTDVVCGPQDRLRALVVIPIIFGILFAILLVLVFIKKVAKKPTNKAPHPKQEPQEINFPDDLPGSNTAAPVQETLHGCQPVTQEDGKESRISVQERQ

OX-40 on 300.19 cells = target: T6, OX-40 on 300.19 cells (UniProt P43489 29-277, limits assumed); assay: FACS on 300.19 cells expressing OX-40
T6 construct: whole, on cells; also called CD134; TNFRSF4
T6 sequence (looked up): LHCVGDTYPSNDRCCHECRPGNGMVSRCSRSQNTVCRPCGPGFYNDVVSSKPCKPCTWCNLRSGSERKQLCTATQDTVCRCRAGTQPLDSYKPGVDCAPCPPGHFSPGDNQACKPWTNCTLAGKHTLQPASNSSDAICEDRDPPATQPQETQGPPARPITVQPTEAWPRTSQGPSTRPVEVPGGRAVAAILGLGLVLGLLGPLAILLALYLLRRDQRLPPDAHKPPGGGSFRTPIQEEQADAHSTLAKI

[7] = target: T1, Recombinant human 4-1BB/Fc Chimera (R&D …); assay: ELISA on coated human 4-1BB IgG1Fc chimera
[8] = target: T1, Recombinant human 4-1BB/Fc Chimera (R&D …); assay: ELISA on directly coated human 4-1BB/Fc, IgG1
human 4-1BB on cells [9] = target: T2, human 4-1BB on cells; assay: FACS on HEK293T cells expressing human 4-1BB, IgG1
Hu41BB N&E = target: T7, Hu41BB N&E (human, UniProt Q07011 18-255); assay: FACS, 100 nM antibody, transduced 300-19 cell pools
T7 construct: Human-to-dog mutant of the human 4-1BB extracellular domain, expressed on transduced 300-19 cells
T7 chain: T4 chain with N13K, A39T, G40S, R43K, T44A, Q98K, R104C, Q117R, S137R, A139V

Hu41BB N&E.1 = target: T8, Hu41BB N&E.1 (human, UniProt Q07011 18-255); assay: as above
T8 construct: Human-to-dog mutant of the human 4-1BB extracellular domain, expressed on transduced 300-19 cells
T8 chain: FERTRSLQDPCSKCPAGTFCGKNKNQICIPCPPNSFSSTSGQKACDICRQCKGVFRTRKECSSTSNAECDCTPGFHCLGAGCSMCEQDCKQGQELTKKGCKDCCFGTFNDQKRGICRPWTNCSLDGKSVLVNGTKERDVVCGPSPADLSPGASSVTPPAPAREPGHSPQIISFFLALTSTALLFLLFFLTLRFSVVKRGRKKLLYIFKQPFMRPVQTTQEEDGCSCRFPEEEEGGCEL

Hu41BB N&E.2 = target: T9, Hu41BB N&E.2 (human, UniProt Q07011 18-255); assay: as above
T9 construct: Human-to-dog mutant of the human 4-1BB extracellular domain, expressed on transduced 300-19 cells
T9 chain: T8 chain with G21D, K22N, K24R, I29S, K52E, R58K, E60V

Hu41BB N&E.3 = target: T10, Hu41BB N&E.3 (human, UniProt Q07011 18-255); assay: as above
T10 construct: Human-to-dog mutant of the human 4-1BB extracellular domain, expressed on transduced 300-19 cells
T10 chain: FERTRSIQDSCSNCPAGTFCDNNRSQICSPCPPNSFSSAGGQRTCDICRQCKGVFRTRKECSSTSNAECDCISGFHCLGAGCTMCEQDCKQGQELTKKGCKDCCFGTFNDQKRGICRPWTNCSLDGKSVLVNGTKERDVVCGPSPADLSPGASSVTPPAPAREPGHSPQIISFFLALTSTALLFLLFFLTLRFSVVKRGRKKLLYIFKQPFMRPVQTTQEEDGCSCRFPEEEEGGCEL

Hu41BB N&E.4 = target: T11, Hu41BB N&E.4 (human, UniProt Q07011 18-255); assay: as above
T11 construct: Human-to-dog mutant of the human 4-1BB extracellular domain, expressed on transduced 300-19 cells
T11 chain: T8 chain with L7I, P10S, N25S, K52E, R58K, E60V, T72I, P73S, S83T

Hu41BB N&E.6 = target: T12, Hu41BB N&E.6 (human, UniProt Q07011 18-255); assay: as above
T12 construct: Human-to-dog mutant of the human 4-1BB extracellular domain, expressed on transduced 300-19 cells
T12 chain: T4 chain with Q98K, R104C, Q117R, S137R, A139V, S144A, P145S, D147G, L148F, A152T

[10] = target: T13, human 4-1BB extracellular portion, amino acids 24-186 (Fc cleaved off with Factor Xa) (human, UniProt Q07011 24-186); assay: SPR (Biacore 3000), antibody amine-coupled, 4-1BB 24-186 as analyte, 25 C
T13 construct: Made from the R&D Systems 4-1BB/Fc chimera by Factor Xa cleavage; also called recombinant human 4-1BB; the 4-1BB

[11] = target: T1, Recombinant human 4-1BB/Fc Chimera (R&D …); assay: ligand competition ELISA, 4-1BB_IgG1Fc to plate-bound 4-1BBL (competitor 4-1BBL)
human 4-1BB on cells [12] = target: T2, human 4-1BB on cells; assay: FACS dose response, Alexa Fluor 647 labelled antibody on 300-19 cells expressing human 4-1BB
Hu41BB N&E.5 [13] = target: T4, Hu41BB N&E.5; assay: FACS dose response, Alexa Fluor 647 labelled antibody on 300-19 cells expressing mutant N&E.5

EC50 [1]: 700 pM
EC50 (human 4-1BB on cells [2]): 900 pM
Kd [3]: 500 pM
Kd [4]: 46 pM
B1: Fab-7480 (Fab, V domains shown)
VH: QVQLVQSGAEVKKPGESLKISCKGSGYSFSTYWISWVRQMPGKGLEWMGKIYPGDSYTNYSPSFQGQVTISADKSISTAYLQWSSLKASDTAMYYCARGYGIFDYWGQGTLVTVSS
VL: DIELTQPPSVSVAPGQTARISCSGDNIGDQYAHWYQQKPGQAPVVVIYQDKNRPSGIPERFSGSNSGNTATLTISGTQAEDEADYYCATYTGFGSLAVFGGGTKLTVL

fold selectivity for 4-1BB versus OX-40 and CD40 (human 4-1BB on cells [5]): ≥ 100 fold
fold decrease in binding against human 4-1BB (Hu41BB N&E.5 [6]): > 5 fold
binding result (CD40 on 300.19 cells): no binding (tested: 1000 nM)
binding result (OX-40 on 300.19 cells): no binding (tested: 1000 nM)
EC50 [7]: 76 pM
EC50 [8]: 700 pM
EC50 (human 4-1BB on cells [9]): 600 pM
binding result (Hu41BB N&E): binds
binding result (Hu41BB N&E.1): binds
binding result (Hu41BB N&E.2): binds
binding result (Hu41BB N&E.3): binds
binding result (Hu41BB N&E.4): binds
binding result (Hu41BB N&E.6): binds
Kd [10]: 420 pM
koff [10]: 0.00015 s⁻¹
kon [10]: 360000 M⁻¹ s⁻¹
t1/2 [10]: 1.37 h
% max inhibition [11]: 96%
IC50 [11]: 122 pM
EC50 (human 4-1BB on cells [12]): 1680 pM
EC50 (Hu41BB N&E.5 [13]): 12300 pM
B2: MOR-7480 (IgG1) (antibody, V domains shown)
VH: B1 VH
VL: B1 VL
notes: Human IgG1 format, lambda light chain
